T1: AbiA (Lactococcus lactis, UniProt Q48596)
T1 construct: full-length, 628 residues, N-terminal His6-tag kept (no SUMO), made in E. coli BL21 Star; plasmid-encoded in the source; homodimer (148 kDa theoretical); co-purifies with covalently attached ssDNA
T1 sequence (Q48596 1-628): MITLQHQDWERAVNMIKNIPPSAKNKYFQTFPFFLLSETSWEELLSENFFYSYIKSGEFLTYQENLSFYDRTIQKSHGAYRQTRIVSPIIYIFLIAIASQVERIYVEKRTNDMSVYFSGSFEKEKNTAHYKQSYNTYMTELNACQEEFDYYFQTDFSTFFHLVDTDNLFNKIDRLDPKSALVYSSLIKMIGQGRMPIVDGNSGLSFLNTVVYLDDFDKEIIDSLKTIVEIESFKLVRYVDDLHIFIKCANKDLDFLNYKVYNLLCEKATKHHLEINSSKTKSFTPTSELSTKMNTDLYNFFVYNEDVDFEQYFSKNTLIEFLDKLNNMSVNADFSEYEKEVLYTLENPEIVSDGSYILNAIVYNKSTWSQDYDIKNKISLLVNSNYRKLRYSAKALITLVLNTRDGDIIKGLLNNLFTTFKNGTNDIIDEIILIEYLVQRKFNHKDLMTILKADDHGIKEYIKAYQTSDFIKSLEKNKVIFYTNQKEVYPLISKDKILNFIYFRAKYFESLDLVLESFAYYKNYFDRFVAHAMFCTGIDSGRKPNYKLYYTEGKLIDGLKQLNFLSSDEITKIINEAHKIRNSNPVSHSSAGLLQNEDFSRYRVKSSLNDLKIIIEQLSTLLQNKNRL

B1: His6-SUMO-AbiA fusion protein (full-length AbiA from L. lactis with uncleaved SUMO tag) (enzyme, UniProt Q48596 1-628, looked up)
chain: MITLQHQDWERAVNMIKNIPPSAKNKYFQTFPFFLLSETSWEELLSENFFYSYIKSGEFLTYQENLSFYDRTIQKSHGAYRQTRIVSPIIYIFLIAIASQVERIYVEKRTNDMSVYFSGSFEKEKNTAHYKQSYNTYMTELNACQEEFDYYFQTDFSTFFHLVDTDNLFNKIDRLDPKSALVYSSLIKMIGQGRMPIVDGNSGLSFLNTVVYLDDFDKEIIDSLKTIVEIESFKLVRYVDDLHIFIKCANKDLDFLNYKVYNLLCEKATKHHLEINSSKTKSFTPTSELSTKMNTDLYNFFVYNEDVDFEQYFSKNTLIEFLDKLNNMSVNADFSEYEKEVLYTLENPEIVSDGSYILNAIVYNKSTWSQDYDIKNKISLLVNSNYRKLRYSAKALITLVLNTRDGDIIKGLLNNLFTTFKNGTNDIIDEIILIEYLVQRKFNHKDLMTILKADDHGIKEYIKAYQTSDFIKSLEKNKVIFYTNQKEVYPLISKDKILNFIYFRAKYFESLDLVLESFAYYKNYFDRFVAHAMFCTGIDSGRKPNYKLYYTEGKLIDGLKQLNFLSSDEITKIINEAHKIRNSNPVSHSSAGLLQNEDFSRYRVKSSLNDLKIIIEQLSTLLQNKNRL
modifications: co-purified ssDNA; the paper shows covalent attachment, with priming at Tyr298 or Tyr303, on the His-tagged protein; 5-9 nt visible in the structure
notes: AbiA, plasmid-encoded abortive infection RT-like polymerase of Lactococcus lactis, full length, 628 amino acid residues; synthetic gene in pET28a-SUMO; The SUMO tag is not visible in the structure; also called full-length SUMO-tagged AbiA; AbiA with an uncleaved SUMO tag; source: E. coli BL21 STAR, purified (HisTrap HP, Superdex 200); not shown: His6, N-terminal, kept; SUMO, N-terminal, kept
B2: AbiA L162W/R601A (enzyme, L. lactis, UniProt Q48596 1-628, looked up)
chain: MITLQHQDWERAVNMIKNIPPSAKNKYFQTFPFFLLSETSWEELLSENFFYSYIKSGEFLTYQENLSFYDRTIQKSHGAYRQTRIVSPIIYIFLIAIASQVERIYVEKRTNDMSVYFSGSFEKEKNTAHYKQSYNTYMTELNACQEEFDYYFQTDFSTFFHWVDTDNLFNKIDRLDPKSALVYSSLIKMIGQGRMPIVDGNSGLSFLNTVVYLDDFDKEIIDSLKTIVEIESFKLVRYVDDLHIFIKCANKDLDFLNYKVYNLLCEKATKHHLEINSSKTKSFTPTSELSTKMNTDLYNFFVYNEDVDFEQYFSKNTLIEFLDKLNNMSVNADFSEYEKEVLYTLENPEIVSDGSYILNAIVYNKSTWSQDYDIKNKISLLVNSNYRKLRYSAKALITLVLNTRDGDIIKGLLNNLFTTFKNGTNDIIDEIILIEYLVQRKFNHKDLMTILKADDHGIKEYIKAYQTSDFIKSLEKNKVIFYTNQKEVYPLISKDKILNFIYFRAKYFESLDLVLESFAYYKNYFDRFVAHAMFCTGIDSGRKPNYKLYYTEGKLIDGLKQLNFLSSDEITKIINEAHKIRNSNPVSHSSAGLLQNEDFSAYRVKSSLNDLKIIIEQLSTLLQNKNRL
notes: AbiA of Lactococcus lactis, 628 residues, with substitutions in the dimer interface; The methods say point substitutions were introduced into the N-terminal His6-tag construct; Expression and purification of this variant are not described separately
B3: AbiA Y80W/T269W (enzyme, L. lactis, UniProt Q48596 1-628, looked up)
chain: MITLQHQDWERAVNMIKNIPPSAKNKYFQTFPFFLLSETSWEELLSENFFYSYIKSGEFLTYQENLSFYDRTIQKSHGAWRQTRIVSPIIYIFLIAIASQVERIYVEKRTNDMSVYFSGSFEKEKNTAHYKQSYNTYMTELNACQEEFDYYFQTDFSTFFHLVDTDNLFNKIDRLDPKSALVYSSLIKMIGQGRMPIVDGNSGLSFLNTVVYLDDFDKEIIDSLKTIVEIESFKLVRYVDDLHIFIKCANKDLDFLNYKVYNLLCEKAWKHHLEINSSKTKSFTPTSELSTKMNTDLYNFFVYNEDVDFEQYFSKNTLIEFLDKLNNMSVNADFSEYEKEVLYTLENPEIVSDGSYILNAIVYNKSTWSQDYDIKNKISLLVNSNYRKLRYSAKALITLVLNTRDGDIIKGLLNNLFTTFKNGTNDIIDEIILIEYLVQRKFNHKDLMTILKADDHGIKEYIKAYQTSDFIKSLEKNKVIFYTNQKEVYPLISKDKILNFIYFRAKYFESLDLVLESFAYYKNYFDRFVAHAMFCTGIDSGRKPNYKLYYTEGKLIDGLKQLNFLSSDEITKIINEAHKIRNSNPVSHSSAGLLQNEDFSRYRVKSSLNDLKIIIEQLSTLLQNKNRL
notes: AbiA of Lactococcus lactis, 628 residues, with tryptophan substitutions in the dimer interface; The methods say point substitutions were introduced into the N-terminal His6-tag construct; Expression and purification of this variant are not described separately
B4: AbiA Y80W/T269W/L515W (enzyme, L. lactis, UniProt Q48596 1-628, looked up)
chain: MITLQHQDWERAVNMIKNIPPSAKNKYFQTFPFFLLSETSWEELLSENFFYSYIKSGEFLTYQENLSFYDRTIQKSHGAWRQTRIVSPIIYIFLIAIASQVERIYVEKRTNDMSVYFSGSFEKEKNTAHYKQSYNTYMTELNACQEEFDYYFQTDFSTFFHLVDTDNLFNKIDRLDPKSALVYSSLIKMIGQGRMPIVDGNSGLSFLNTVVYLDDFDKEIIDSLKTIVEIESFKLVRYVDDLHIFIKCANKDLDFLNYKVYNLLCEKAWKHHLEINSSKTKSFTPTSELSTKMNTDLYNFFVYNEDVDFEQYFSKNTLIEFLDKLNNMSVNADFSEYEKEVLYTLENPEIVSDGSYILNAIVYNKSTWSQDYDIKNKISLLVNSNYRKLRYSAKALITLVLNTRDGDIIKGLLNNLFTTFKNGTNDIIDEIILIEYLVQRKFNHKDLMTILKADDHGIKEYIKAYQTSDFIKSLEKNKVIFYTNQKEVYPLISKDKILNFIYFRAKYFESLDLVWESFAYYKNYFDRFVAHAMFCTGIDSGRKPNYKLYYTEGKLIDGLKQLNFLSSDEITKIINEAHKIRNSNPVSHSSAGLLQNEDFSRYRVKSSLNDLKIIIEQLSTLLQNKNRL
notes: as for B3
B5: AbiA L515W (enzyme, L. lactis, UniProt Q48596 1-628, looked up)
chain: MITLQHQDWERAVNMIKNIPPSAKNKYFQTFPFFLLSETSWEELLSENFFYSYIKSGEFLTYQENLSFYDRTIQKSHGAYRQTRIVSPIIYIFLIAIASQVERIYVEKRTNDMSVYFSGSFEKEKNTAHYKQSYNTYMTELNACQEEFDYYFQTDFSTFFHLVDTDNLFNKIDRLDPKSALVYSSLIKMIGQGRMPIVDGNSGLSFLNTVVYLDDFDKEIIDSLKTIVEIESFKLVRYVDDLHIFIKCANKDLDFLNYKVYNLLCEKATKHHLEINSSKTKSFTPTSELSTKMNTDLYNFFVYNEDVDFEQYFSKNTLIEFLDKLNNMSVNADFSEYEKEVLYTLENPEIVSDGSYILNAIVYNKSTWSQDYDIKNKISLLVNSNYRKLRYSAKALITLVLNTRDGDIIKGLLNNLFTTFKNGTNDIIDEIILIEYLVQRKFNHKDLMTILKADDHGIKEYIKAYQTSDFIKSLEKNKVIFYTNQKEVYPLISKDKILNFIYFRAKYFESLDLVWESFAYYKNYFDRFVAHAMFCTGIDSGRKPNYKLYYTEGKLIDGLKQLNFLSSDEITKIINEAHKIRNSNPVSHSSAGLLQNEDFSRYRVKSSLNDLKIIIEQLSTLLQNKNRL
notes: AbiA of Lactococcus lactis, 628 residues, with a tryptophan substitution in the dimer interface; The methods say point substitutions were introduced into the N-terminal His6-tag construct; Expression and purification of this variant are not described separately
B6: full-length untagged AbiA (enzyme, L. lactis, UniProt Q48596 1-628, looked up)
chain: MITLQHQDWERAVNMIKNIPPSAKNKYFQTFPFFLLSETSWEELLSENFFYSYIKSGEFLTYQENLSFYDRTIQKSHGAYRQTRIVSPIIYIFLIAIASQVERIYVEKRTNDMSVYFSGSFEKEKNTAHYKQSYNTYMTELNACQEEFDYYFQTDFSTFFHLVDTDNLFNKIDRLDPKSALVYSSLIKMIGQGRMPIVDGNSGLSFLNTVVYLDDFDKEIIDSLKTIVEIESFKLVRYVDDLHIFIKCANKDLDFLNYKVYNLLCEKATKHHLEINSSKTKSFTPTSELSTKMNTDLYNFFVYNEDVDFEQYFSKNTLIEFLDKLNNMSVNADFSEYEKEVLYTLENPEIVSDGSYILNAIVYNKSTWSQDYDIKNKISLLVNSNYRKLRYSAKALITLVLNTRDGDIIKGLLNNLFTTFKNGTNDIIDEIILIEYLVQRKFNHKDLMTILKADDHGIKEYIKAYQTSDFIKSLEKNKVIFYTNQKEVYPLISKDKILNFIYFRAKYFESLDLVLESFAYYKNYFDRFVAHAMFCTGIDSGRKPNYKLYYTEGKLIDGLKQLNFLSSDEITKIINEAHKIRNSNPVSHSSAGLLQNEDFSRYRVKSSLNDLKIIIEQLSTLLQNKNRL
modifications: co-purified ssDNA covalently attached (priming at Tyr298 or Tyr303)
notes: AbiA, plasmid-encoded abortive infection RT-like polymerase of Lactococcus lactis, full length, 628 amino acid residues; The results call it 'untagged'; The only SUMO-free construct in the methods carries an N-terminal His6-tag, and the SUMO tag could not be cleaved, so this is probably His6-AbiA; also called AbiA without SUMO tag; AbiA without a tag; source: E. coli BL21 STAR, purified (HisTrap …)

Key:
[1] = molecular target: T1, AbiA; assay: extension of […]-labelled co-purified covalently attached DNA, urea-PAGE autoradiography; type: biochemical; settings: 200 uM single dNTP, 50 mM Tris pH 7.0, 250 mM NaCl, 10 mM MgCl2, 5 mM DTT, 37 C; DNA pre-labelled with alpha-33P-dATP; template-independent, protein-primed
[2] = molecular target: the molecule itself; assay: SEC-MALS; Superdex 200 Increase 10/300 GL; 25 mM Tris pH 7.0, 400 mM NaCl, 2% glycerol, 1 mM DTT; 0.75 ml/min; self-association of AbiA variants
[3] = molecular target: the molecule itself; assay: SEC-MALS; GF/MALS of tryptophan substitution variants of the dimer interface; data not shown

Molecule	stoichiometry N [3]	also measured
Nc1ncnc2c1ncn2[C@H]1C[C@H](O)[C@@H](COP(=O)(O)OP(=O)(O)OP(=O)(O)O)O1 [dATP]		extension of 33P-labelled co-purified covalently attached DNA, urea-PAGE autorad [1]: dATP and dCTP were incorporated with efficiencies similar to those observed with dNTP mix
Nc1ccn([C@H]2C[C@H](O)[C@@H](COP(=O)(O)OP(=O)(O)OP(=O)(O)O)O2)c(=O)n1 [dCTP]		extension of 33P-labelled co-purified covalently attached DNA, urea-PAGE autorad [1]: dATP and dCTP were incorporated with efficiencies similar to those observed with dNTP mix
B1		stoichiometry N [2]: 2
B2	2	
B3	2	
B4	2	
B5	2	
B6		stoichiometry N [2]: 2
